Reference: the supplement of paper PMC9112550, “Optimization of the antimicrobial peptide Bac7 by deep mutational scanning” (BMC Biology, 2022)

Tested on: Escherichia coli TOP10
Assay: shrunken log2 fold change of peptide-encoding DNA abundance (4.5 h post-induction vs induction); higher = less antimicrobial activity (less host growth inhibition)
Conditions: time post-induction: 4.5 h; library: site-saturation at positions 5, 18, 19, 20
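Note: peptides expressed intracellularly from a pBAD plasmid library in pooled LB shake-flask culture, induced with 0.3% L-arabinose, DNA abundance read by NGS, three biological replicates, DESeq2 with apeglm shrinkage.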

Row | Sequence | shrunken log2 fold change
1 | RRIRKRPPRLPRPRPRPRWHPRP | 0.0132
2 | RRIRTRPPRLPRPRPRPHDKPRP | -0.51
3 | RRIRLRPPRLPRPRPRPTTSPRP | -0.0271
4 | RRIRNRPPRLPRPRPRPPPKPRP | 1.5
5 | RRIRIRPPRLPRPRPRPMYAPRP | -0.191
6 | RRIRRRPPRLPRPRPRPNNMPRP | -0.348
7 | RRIRGRPPRLPRPRPRPLARPRP | 0.91
8 | RRIRPRPPRLPRPRPRPFWWPRP | 0.55
9 | RRIRRRPPRLPRPRPRPQWSPRP | -0.00927
10 | RRIRVRPPRLPRPRPRPPPYPRP | 0.233
11 | RRIRERPPRLPRPRPRPHNYPRP | -0.612
12 | RRIRNRPPRLPRPRPRPERRPRP | 0.237
13 | RRIRARPPRLPRPRPRPCAIPRP | -0.00341
14 | RRIRTRPPRLPRPRPRPDCVPRP | -0.128
15 | RRIRTRPPRLPRPRPRPTWKPRP | 0.0204
16 | RRIRRRPPRLPRPRPRPNQWPRP | 0.128
17 | RRIRRRPPRLPRPRPRPWLFPRP | 0.383
18 | RRIRVRPPRLPRPRPRPAPIPRP | 0.152
19 | RRIRHRPPRLPRPRPRPLEPPRP | -0.55
20 | RRIRTRPPRLPRPRPRPYGHPRP | -0.587
21 | RRIRERPPRLPRPRPRPHEVPRP | -0.0812
22 | RRIRKRPPRLPRPRPRPEYNPRP | 0.196
23 | RRIRNRPPRLPRPRPRPHAYPRP | 0.00658
24 | RRIRRRPPRLPRPRPRPPSQPRP | 0.46
25 | RRIRCRPPRLPRPRPRPSCCPRP | 0.0437

Row | Sequence | shrunken log2 fold change
26 | RRIRNRPPRLPRPRPRPQAAPRP | -0.0424
27 | RRIRGRPPRLPRPRPRPYLHPRP | -0.385
28 | RRIRQRPPRLPRPRPRPMRPPRP | 0.968
29 | RRIRRRPPRLPRPRPRPSREPRP | 0.962
30 | RRIRLRPPRLPRPRPRPGVPPRP | 0.0447
31 | RRIRYRPPRLPRPRPRPHSQPRP | -0.71
32 | RRIRIRPPRLPRPRPRPALVPRP | 0.228
33 | RRIRTRPPRLPRPRPRPFWWPRP | 0.299
34 | RRIRSRPPRLPRPRPRPKHNPRP | -0.286
35 | RRIRFRPPRLPRPRPRPHYKPRP | -0.408
36 | RRIRIRPPRLPRPRPRPFRRPRP | 0.017
37 | RRIRARPPRLPRPRPRPERNPRP | 0.848
38 | RRIRNRPPRLPRPRPRPCREPRP | -0.109
39 | RRIRSRPPRLPRPRPRPYGTPRP | -0.196
40 | RRIRCRPPRLPRPRPRPPEGPRP | 0.926
41 | RRIRSRPPRLPRPRPRPNYKPRP | -0.546
42 | RRIRNRPPRLPRPRPRPAMPPRP | 0.236
43 | RRIRDRPPRLPRPRPRPIPAPRP | 0.0318
44 | RRIRTRPPRLPRPRPRPWKRPRP | 0.0299
45 | RRIRERPPRLPRPRPRPHLGPRP | -0.0405
46 | RRIRRRPPRLPRPRPRPQWQPRP | 0.435
47 | RRIRFRPPRLPRPRPRPFPDPRP | -0.137
48 | RRIRQRPPRLPRPRPRPEKPPRP | -0.129
49 | RRIRWRPPRLPRPRPRPCYYPRP | -0.0954
50 | RRIRMRPPRLPRPRPRPIWKPRP | 0.00523

Row | Sequence | shrunken log2 fold change
51 | RRIRQRPPRLPRPRPRPWDGPRP | 0.199
52 | RRIRIRPPRLPRPRPRPFHWPRP | 0.0373
53 | RRIRFRPPRLPRPRPRPNKRPRP | -0.274
54 | RRIRLRPPRLPRPRPRPTEVPRP | -0.126
55 | RRIRSRPPRLPRPRPRPNYIPRP | -0.757
56 | RRIRLRPPRLPRPRPRPWMYPRP | -0.0417
57 | RRIRGRPPRLPRPRPRPNGWPRP | 0.477
58 | RRIRYRPPRLPRPRPRPGFAPRP | -0.00507
59 | RRIRRRPPRLPRPRPRPFNVPRP | -0.264
60 | RRIRLRPPRLPRPRPRPREHPRP | 0.204
61 | RRIRYRPPRLPRPRPRPILTPRP | -1.08
62 | RRIRQRPPRLPRPRPRPTYAPRP | -0.0832
63 | RRIRERPPRLPRPRPRPTPCPRP | 0.0922
64 | RRIRSRPPRLPRPRPRPTVYPRP | 0.0113
65 | RRIRWRPPRLPRPRPRPTVRPRP | 1.14
66 | RRIRVRPPRLPRPRPRPLCAPRP | 0.17
67 | RRIRRRPPRLPRPRPRPMSCPRP | 0.0813
68 | RRIRLRPPRLPRPRPRPCTQPRP | -0.174
69 | RRIRSRPPRLPRPRPRPQSNPRP | -0.613
70 | RRIRNRPPRLPRPRPRPYMRPRP | -0.597
71 | RRIRSRPPRLPRPRPRPFVRPRP | 0.0631
72 | RRIRCRPPRLPRPRPRPHSWPRP | -0.301
73 | RRIRPRPPRLPRPRPRPRKVPRP | 0.00959
74 | RRIRERPPRLPRPRPRPLYVPRP | -0.939
75 | RRIRSRPPRLPRPRPRPGGNPRP | 0.163

Row | Sequence | shrunken log2 fold change
76 | RRIRDRPPRLPRPRPRPMKVPRP | -0.0768
77 | RRIRCRPPRLPRPRPRPHKPPRP | 0.0762
78 | RRIRYRPPRLPRPRPRPQGEPRP | -0.325
79 | RRIRSRPPRLPRPRPRPEGIPRP | 0.0592
80 | RRIRERPPRLPRPRPRPRIKPRP | -0.598
81 | RRIRDRPPRLPRPRPRPMSCPRP | -0.00207
82 | RRIRPRPPRLPRPRPRPLTHPRP | -0.108
83 | RRIRMRPPRLPRPRPRPQAFPRP | 0.0522
84 | RRIRIRPPRLPRPRPRPEPKPRP | 0.475
85 | RRIRSRPPRLPRPRPRPNENPRP | -0.118
86 | RRIRVRPPRLPRPRPRPYSVPRP | -0.265
87 | RRIRDRPPRLPRPRPRPYGDPRP | -0.0996
88 | RRIRVRPPRLPRPRPRPKSTPRP | -0.158
89 | RRIRRRPPRLPRPRPRPWLMPRP | -0.185
90 | RRIRSRPPRLPRPRPRPAHGPRP | 0.153
91 | RRIRSRPPRLPRPRPRPKPTPRP | 0.174
92 | RRIRHRPPRLPRPRPRPDYTPRP | -0.00281
93 | RRIRDRPPRLPRPRPRPLQHPRP | 0.0148
94 | RRIRWRPPRLPRPRPRPGEFPRP | 0.17
95 | RRIRERPPRLPRPRPRPQCSPRP | -0.442
96 | RRIRMRPPRLPRPRPRPNKYPRP | -0.148
97 | RRIRMRPPRLPRPRPRPNKRPRP | 0.261
98 | RRIRLRPPRLPRPRPRPIDQPRP | 0.281
99 | RRIRCRPPRLPRPRPRPCPFPRP | -0.332
100 | RRIRCRPPRLPRPRPRPETSPRP | 0.0533

Row | Sequence | shrunken log2 fold change
101 | RRIRERPPRLPRPRPRPAECPRP | -0.0953
102 | RRIRARPPRLPRPRPRPCNDPRP | -0.0678
103 | RRIRKRPPRLPRPRPRPFSQPRP | -0.151
104 | RRIRLRPPRLPRPRPRPSMTPRP | 1.72
105 | RRIRGRPPRLPRPRPRPSGDPRP | 0.952
106 | RRIRARPPRLPRPRPRPQAKPRP | 0.0548
107 | RRIRERPPRLPRPRPRPKNDPRP | -0.467
108 | RRIRDRPPRLPRPRPRPTHWPRP | 0.192
109 | RRIRLRPPRLPRPRPRPARQPRP | 0.281
110 | RRIRDRPPRLPRPRPRPEVDPRP | 0.00961
111 | RRIRSRPPRLPRPRPRPSCEPRP | -0.0887
112 | RRIRRRPPRLPRPRPRPSTIPRP | -0.121
113 | RRIRRRPPRLPRPRPRPGKWPRP | 0.152
114 | RRIRQRPPRLPRPRPRPRVHPRP | -0.163
115 | RRIRSRPPRLPRPRPRPLKFPRP | -0.0436
116 | RRIRTRPPRLPRPRPRPLVHPRP | -0.282
117 | RRIRKRPPRLPRPRPRPILPPRP | 2.29
118 | RRIRFRPPRLPRPRPRPLMIPRP | -0.266
119 | RRIRNRPPRLPRPRPRPHDRPRP | -0.146
120 | RRIRFRPPRLPRPRPRPMHPPRP | -0.082
121 | RRIRKRPPRLPRPRPRPHCGPRP | -0.0593
122 | RRIRTRPPRLPRPRPRPYVLPRP | -0.321
123 | RRIRYRPPRLPRPRPRPSEHPRP | -0.488
124 | RRIRFRPPRLPRPRPRPETIPRP | -0.103
125 | RRIRGRPPRLPRPRPRPSFKPRP | -0.0759
